Assay results taken from publication PMC9546846.

Key:
N-cadherin = N-cadherin (UniProt P15116); settings: cited from earlier work
[1] = biological target: ddFP-B1-inserted NCad (NCad-B1) (mouse) (UniProt P15116); assay: split reporter (BiFC, NanoBiT); dimerization-dependent fluorescent protein; time-lapse of HEK293T cells each expressing one component, from seeding for 120 min, then 10 mM EGTA for 120 min; washout of EGTA in a further experiment
[2] = biological target: ddFP-B3-inserted NCad (NCad-B3) (mouse) (UniProt P15116); assay: as above
[3] = biological target: ddFP-B1-inserted NCad (NCad-B1) (mouse) (UniProt P15116); assay: split reporter (BiFC, NanoBiT); dimerization-dependent fluorescent protein; HEK293T cells co-expressing both components (mCherry-NLS) co-cultured with cells expressing NCad without fluorescent protein (EBFP2-NLS); signal at R-R against B-R cell adhesion sites
[4] = biological target: ddFP-B3-inserted NCad (NCad-B3) (mouse) (UniProt P15116); assay: as above

Sequence of N-cadherin (P15116 160-724): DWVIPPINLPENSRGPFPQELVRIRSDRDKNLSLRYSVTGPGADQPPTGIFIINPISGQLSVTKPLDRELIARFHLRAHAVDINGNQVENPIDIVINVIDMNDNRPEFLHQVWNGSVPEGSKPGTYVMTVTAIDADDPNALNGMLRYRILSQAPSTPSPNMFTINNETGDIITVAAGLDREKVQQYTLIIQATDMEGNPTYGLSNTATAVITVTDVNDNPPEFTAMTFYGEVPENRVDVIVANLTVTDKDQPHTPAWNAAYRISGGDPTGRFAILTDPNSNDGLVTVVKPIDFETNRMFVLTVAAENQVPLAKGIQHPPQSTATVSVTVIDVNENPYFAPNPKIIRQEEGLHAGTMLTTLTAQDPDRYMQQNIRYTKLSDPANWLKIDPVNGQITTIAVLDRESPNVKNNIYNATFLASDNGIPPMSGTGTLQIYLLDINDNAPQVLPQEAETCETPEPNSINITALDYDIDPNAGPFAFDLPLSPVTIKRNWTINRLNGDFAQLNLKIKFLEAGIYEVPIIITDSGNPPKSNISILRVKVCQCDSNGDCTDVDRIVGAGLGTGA

Substance	Kd (N-cadherin)	time to 50% of the signal after addition of 10 mM EGTA [1]	time to 50% of the signal after addition of 10 mM EGTA [2]	contrast of signal between R-R and B-R cell adhesion sites [3]	contrast of signal between R-R and B-R cell adhesion sites [4]
N-cadherin (from UniProt P15116)	25 µM				
ddGFP-A-inserted NCad (NCad-GA) (from UniProt P15116 26-311; P15116 312-906)		50 min	50 min	5.31	7.72
